The source of these data is publication PMC12718150.

In assay [1] the target is 2-hydroxy-hept-2,4-diene-1,7-dioate (HHDD) isomerase (HHDDI) from Acinetobacter baumannii TH (Acinetobacter baumannii TH). In words: SEC; single purified enzyme (0.5-1.0 mg/ml) on ENrich SEC650 (10 x 300 mm), buffer G (50 mM HEPES, pH 7.0, 150 mM NaCl), 0.5 ml/min, 4 °C; native MW from a calibration curve of protein standards against subunit MW. For orientation: In gel filtration, larger molecules generally elute earlier.

The target is the same in assay [2].
The target is the same in assay [3]. Briefly: SEC; ENrich SEC650 gel filtration column, FPLC; OPETD and HHDDI mixed at 1:1 molar ratio (0.5 and 1.0 mg/ml), incubated on ice in buffer G (50 mM HEPES, pH 7.0, 150 mM NaCl); 0.5 ml/min, 4 °C; native MW from a calibration curve.

By stoichiometry N is commonly meant a count of units in the complex or per binding partner. “2-hydroxy-hept-2,4-diene-1,7-dioate (HHDD) isomerase (HHDDI) from Acinetobacter baumannii TH (enzyme)”: the stoichiometry N in assay [1] came out at 2.

As to “5-oxo-pent-3-ene-1,2,5-tricarboxylate (OPET) decarboxylase (OPETD) from Acinetobacter baumannii TH (enzyme)”, in assay [2], the tri-acid decarboxylation activity of the OPETD-HHDDI complex against HHDDI alone (synthesized tri-acid substrate, LC-MS/MS of the di-acid) was 12 fold and the tri-acid decarboxylation activity of the OPETD-HHDDI complex against OPETD alone (synthesized tri-acid substrate, LC-MS/MS of the di-acid) was determined as 60 fold. Moreover, the stoichiometry N (OPETD per HHDDI) in assay [3] was found to be 1.
